This series in a line: soluble on expression in E. coli; label from the status in PepcDB or PDB records.
In the case of “MFQLLAVCPMGLEAVVAREIQELGYETNVENGRIFFEGDASAIVKANLWLRTADRIKIVVGRFNATTFDELFEQTKALPWESIIDKEGNFPVQGRSVKSTLHSVPDCQAITKKAIVERLRRAYNEKGWLNESGAKYPVEVAILKDNVLLTIDTSGSGLNRRGYRLAQGEAPIKETLAASLIRLANWKGDTPLIDPFCGSGTIAIEACLIAQNIAPGFNREFVSEQWNIMPANIYDDYRDEADKMADYDKEIEVYASDIDPEMVEIAKRNAEEVGLSDIIKFSVKDVNTLTIDTEEPVALIGNPPYGERIGDREEVEEMYRYIGKLMKQHPFLSTYILTSNKEFEYLVNRKATKRRKLFNGYIECTYYQYWGKKTERKTIEN”, the “soluble on expression in E. coli” value is recorded as “not soluble”.
As for “RGVLEGTVRIGALPLSRTRLLPSAIAAFLAQHPGITLMTNESPYESLVADMRAGNIDFIIGALRQDEDLPDLCSEALFEEDMLILLRNNHPLLRHPDPRSQLATAQWVLPRANAPARNLLDKAFVTLGLPLPQPTVETGDAAMVR”, the entry is “not soluble”; as for “GISVDKRIEQATSDFLAAAQAIDLQEHLISGYRSVDYQTELYQSYIKKEMANDPTLTQEAAEALVQTYSQPPGASEHHTGLAIDMSTVDTLNASDPSVAKAVQKIAPDYGFVLRFPEGKKTSTGVDYEDWHYRYVGKASARYMAQHNLTLEEYIAALKEKR”, “not soluble”; as for “MSLQRSYCYQLTRRFCQSHEHTKLAKWLNINSKLNPFRPDPPVGGSPFLHGVGDEDKPVYIPQDVRVGHTFVVGTTRVGKTRLASILINQDIRNGDAVIVVDPKGDQDLVRDMVAACKVSGRTEDFKIVHLGFPEQSAQYNPLKKFDQISEVATRITDAISAEGEGKQFAAFAWKYVNIVAICLEEMNQPITYQTIAFYISRLEQLLMSYADNILPNHYLNYHQEIDDIIEEHDSKIGKNNKTKSPMERHQAVIQYIKDHINKTIKSNNAEALHDQILIDLYDAAIMDKHYYDKITASVGPVLSEINKSNASKILSSKAQPGDIELMDVIKNKKVLYIGLDSLTNPNIAQAVGKAFLSDLVSTAGKIYKEEGHHHHHH”, “soluble”.
On to “CSCSPVHPQQAFCNADIVIRAKAVNKKEVDSGNDIYGNPIKRIQYEIKQIKMFKGPDQDIEFIYTAPAAAVCGVSLDIGGKKEYLIAGKAEGNGNMHITLCDFIVPWDTLSATQKKSLNHRYQMGCECKITRCPMIPCYISSPDECLWMDWVTEKNINGHQAKFFACIKRSDGSCAWYRGAAPP”, for which the “soluble on expression in E. coli” value is on record as “soluble”.
As for “GRISMTVKKLYFIPAGRCMLDHSSVNSALTPGKLLNLPVWCYLLETEEGPILVDTGMPESAVNNEGLFNGTFVEGQILPKMTEEDRIVNILKRVGYEPDDLLYIISSHLHFDHAGGNGAFTNTPIIVQRTEYEAALHREEYMKECILPHLNYKIIEGDYEVVPGVQLLYTPGHSPGHQSLFIETEQSGSVLLTIDASYTKENFEDEVPFAGFDPELALSSIKRLKEVVKKEKPIIFFGHDIEQEKSCRVFPEYI”, the entry is “soluble”; as for “MSLEPVFQLRKELNVFASEEGGATEDISSYAATADSSGITEWNTSDKFTNEMTLTENAKYTVSQLAPNLSFLPEQATDLTGAVDYYSGNALCNDRENLYIWPFNSPQRRLACIRIPLHEEHEVLSGAPLCCFTWPSAGEESEQTKSAGVLIVHANSGLVQFYEDIHTINSVSTLISKSRVIQLDLRFRDREHATDVVNAEPSGILVATSFGRLLLLTIRDSSGKPCLKLRQQLIKSQVGFFSGAMNTFKDIVAIKPSLITGKGERLLLTITRGGELKIWNVSATMSSYKRVEVNVYQQILESLQELYPFAYGSLQILDLNPLPSDPYSLLVLSSISDGKETYYILTAIKVEESSFSIFSVYRLNTYTKANDKKPRLFIAGDLENGEQPIEPQNVPVYLLFEDAVVITQAFTQLDSNYPLRKKWEDLVSLKEDSMVLGHGNDEKALYLINGNRGVVKIEAKMEPSEDYRFVKSHIDQAVYFSEGHHHHHH”, “soluble”.
Take “MGSDKIHHHHHHMNAPRFAAPARRTKKLPPLRVGIGGPVGSGKTTLLEMLCKGMRERYDLVAITNDIYTKEDQRLLTIAGALPEARIMGVETGGCPHTAIREDASINLEAVERMLARFPDADIVFIESGGDNLAATFSPELSDLTIYVIDVAGGEKIPRKGGPGITKSDLLVINKTDLAPLVGANLEVMASDTRKMRGERPYVMCNLKALDGVADVIAFIENKGLLTV”: the “soluble on expression in E. coli” value is listed as “not soluble”.
